The source of these data is patent publication US20250388669A1 (published 2025).

The target in one test is T1, B7H3 (UniProt Q5ZPR3 29-466, limits assumed).
T1 sequence (looked up): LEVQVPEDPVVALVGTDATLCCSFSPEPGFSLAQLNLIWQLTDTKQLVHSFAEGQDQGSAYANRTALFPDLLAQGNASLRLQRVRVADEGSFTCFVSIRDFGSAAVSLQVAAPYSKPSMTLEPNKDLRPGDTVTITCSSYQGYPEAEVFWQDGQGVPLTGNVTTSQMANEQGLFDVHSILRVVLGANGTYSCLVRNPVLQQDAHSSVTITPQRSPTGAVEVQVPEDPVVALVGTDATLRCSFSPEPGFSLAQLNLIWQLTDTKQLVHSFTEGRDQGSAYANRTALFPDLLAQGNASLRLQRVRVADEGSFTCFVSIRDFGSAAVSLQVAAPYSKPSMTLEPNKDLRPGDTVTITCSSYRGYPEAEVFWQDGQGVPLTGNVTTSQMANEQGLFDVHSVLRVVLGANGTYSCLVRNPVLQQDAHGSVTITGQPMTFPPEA
Kind of test: FCM or ELISA (graded summary table).

Another test addresses CD40 (UniProt P25942 21-193, limits assumed). As to the kind of experiment: FCM or ELISA, graded.
A further test concerns the target PD-1 (binding assay) (UniProt Q15116 25-167, limits assumed). As to the kind of experiment: FCM or ELISA, graded.

Sequence of PD-1 (binding assay) (Q15116 25-167 limits assumed): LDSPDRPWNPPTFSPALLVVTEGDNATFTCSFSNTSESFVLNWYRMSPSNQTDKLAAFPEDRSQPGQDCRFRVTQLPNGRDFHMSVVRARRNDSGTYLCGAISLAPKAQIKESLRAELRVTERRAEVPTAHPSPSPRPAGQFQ
Sequence of CD40 (P25942 21-193 limits assumed): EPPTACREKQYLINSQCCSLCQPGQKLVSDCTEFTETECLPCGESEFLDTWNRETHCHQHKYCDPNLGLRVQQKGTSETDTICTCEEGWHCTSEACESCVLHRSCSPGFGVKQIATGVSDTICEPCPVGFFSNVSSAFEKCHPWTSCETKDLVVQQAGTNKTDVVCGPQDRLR

B1: Ly1965 (bispecific antibody)
chain 1: QVQLVQSGAEVKKPGASVKVSCKASGYTFTSYVMHWVRQKPGQGLEWIGYINPYNEGTESTDKFKGRATMTSDKSTSTVYMELSSLRSEDTAVYYCASIYYGYEGTYFGVWGQGTLVTVSSASTKGPSVFPLAPSSKSTSGGTAALGCLVKDYFPEPVTVSWNSGALTSGVHTFPAVLQSSGLYSLSSVVTVPSSSLGTQTYICNVNHKPSNTKVDKKVEPKSCGGGGSGGGGSGGGGSGGGGSEVQLVESGGGLVQPGGSLRLSCAASGFTFSTYAMNWVRQAPGKGLEWVGRIRSKYNNYATYYADSVKGRFTISRDDSKNSLYLQMNSLKTEDTAVYYCVRHGNFGNSYVSWFAYWGQGTLVTVSSGGGGSDKTHTCPPCPAPEAAGPSVFLFPPKPKDTLMISRTPEVTCVVVDVSHEDPEVKFNWYVDGVEVHNAKTKPREEQYNSTYRVVSVLTVLHQDWLNGKEYKCKVSNKALPAPIEKTISKAKGQPREPQVYTLPPSREEMTKNQVSLWCLVKGFYPSDIAVEWESNGQPENNYKTTPPVLDSDGSFFLYSKLTVDKSRWQQGNVFSCSVMHEALHNHYTQKSLSLSPG
chain 2: QVQLVQSGAEVKKPGASVKVSCKASGYTFTSYVMHWVRQKPGQGLEWIGYINPYNEGTESTDKFKGRATMTSDKSTSTVYMELSSLRSEDTAVYYCASIYYGYEGTYFGVWGQGTLVTVSSASTKGPSVFPLAPSSKSTSGGTAALGCLVKDYFPEPVTVSWNSGALTSGVHTFPAVLQSSGLYSLSSVVTVPSSSLGTQTYICNVNHKPSNTKVDKKVEPKSCGGGGSGGGGSGGGGSGGGGSQAVVTQEPSLTVSPGGTVTLTCRSSTGAVTTSNYANWVQQKPGQAPRGLIGGTNKRAPWTPARFSGSLLGGKAALTITGAQAEDEADYYCALWYSNLWVFGGGTKLTVLGGGGSDKTHTCPPCPAPEAAGPSVFLFPPKPKDTLMISRTPEVTCVVVDVSHEDPEVKFNWYVDGVEVHNAKTKPREEQYNSTYRVVSVLTVLHQDWLNGKEYKCKVSNKALPAPIEKTISKAKGQPREPQVYTLPPSREEMTKNQVSLSCAVKGFYPSDIAVEWESNGQPENNYKTTPPVLDSDGSFFLVSKLTVDKSRWQQGNVFSCSVMHEALHNRFTQKSLSLSPG
light: EIVLTQSPATLSLSPGERATLSCRASSSVSYMHWYQQKPGQAPRPWIYATSNLASGIPARFSGSRSGTDYTLTISSLEPEDFAVYYCQQWSSNTLTFGGGTKVEIKRTVAAPSVFIFPPSDEQLKSGTASVVCLLNNFYPREAKVQWKVDNALQSGNSQESVTEQDSKDSTYSLSSTLTLSKADYEKHKVYACEVTHQGLSSPVTKSFNRGEC
notes: Bispecific B7H3 (two Fabs) / CD3 (central Fv)
B1: the binding result in the test with B7H3 is “binds”.

B2: Ly2405 (bispecific antibody, human IgG1, kappa)
heavy 1: not shown
heavy 2: QVTLKESGPALVKPTQTLTLTCTFSGFSLSTSGTCVSWIRQPPGKALEWLATICWEDSKGYNPSLKSRLTISKDTSKNQAVLTMTNMDPVDTATYYCARREDSGYFWFPYWGQGTLVTVSSASTKGPSVFPLAPSSKSTSGGTAALGCLVKDYFPEPVTVSWNSGALTSGVHTFPAVLQSSGLYSLSSVVTVPSSSLGTQTYICNVNHKPSNTKVDKKVEPKSCDKTHTCPPCPAPEAAGPSVFLFPPKPKDTLMISRTPEVTCVVVDVSHEDPEVKFNWYVDGVEVHNAKTKPREEQYNSTYRVVSVLTVLHQDWLNGKEYKCKVSNKALPAPIEKTISKAKGQPREPQVYTLPPSREEMTKNQVSLSCAVKGFYPSDIAVEWESNGQPENNYKTTPPVLDSDGSFFLVSKLTVDKSRWQQGNVFSCSVMHEALHNRFTQKSLSLSPGGGGGSGGGGSGGGGSGGGGSDIQMTQSPSSVSASVGDRVTITCRASQGIYSWLAWYQQKPGKAPNLLIYTASTLQSGVPSRFSGSGSGTDFTLTISSLQPEDFATYYCQQANIFPLTFGGGTKVEIK
light: NIQMTQSPSSLSASVGDRVTITCKAGQNVNNYLAWYQQKPGKAPKVLIFNANSLQTGVPSRFSGSGSGTDFTLTISSLQPEDFATYYCQQYNSWPTFGGGTKVEIKRTVAAPSVFIFPPSDEQLKSGTASVVCLLNNFYPREAKVQWKVDNALQSGNSQESVTEQDSKDSTYSLSSTLTLSKADYEKHKVYACEVTHQGLSSPVTKSFNRGEC
notes: PD-1 Fabs (Ly516) x terminal CD40 Fv (TM383)
B2: the binding result in the test with CD40 and with PD-1 (binding assay) was “binds” each time.

B3: Ly2409 (bispecific antibody)
heavy 1: QVTLKESGPALVKPTQTLTLTCTFSGFSLSTSGTCVSWIRQPPGKALEWLATICWEDSKGYNPSLKSRLTISKDTSKNQAVLTMTNMDPVDTATYYCARREDSGYFWFPYWGQGTLVTVSSASTKGPSVFPLAPSSKSTSGGTAALGCLVKDYFPEPVTVSWNSGALTSGVHTFPAVLQSSGLYSLSSVVTVPSSSLGTQTYICNVNHKPSNTKVDKKVEPKSCGGGGSGGGGSGGGGSGGGGSEVQLVESGGGLVQPGGSLRLSCAASGFTFTNYGLHWVRQAPGKGLEWVSSISPSGGVTYYRDSVKGRFTISRDNSKNTLYLQMNSLRAEDTAVYYCAKPFLGWGGANWIAHWGQGTLVTVSSGGGGSDKTHTCPPCPAPEAAGPSVFLFPPKPKDTLMISRTPEVTCVVVDVSHEDPEVKFNWYVDGVEVHNAKTKPREEQYNSTYRVVSVLTVLHQDWLNGKEYKCKVSNKALPAPIEKTISKAKGQPREPQVYTLPPSREEMTKNQVSLWCLVKGFYPSDIAVEWESNGQPENNYKTTPPVLDSDGSFFLYSKLTVDKSRWQQGNVFSCSVMHEALHNHYTQKSLSLSPG
heavy 2: QVTLKESGPALVKPTQTLTLTCTFSGFSLSTSGTCVSWIRQPPGKALEWLATICWEDSKGYNPSLKSRLTISKDTSKNQAVLTMTNMDPVDTATYYCARREDSGYFWFPYWGQGTLVTVSSASTKGPSVFPLAPSSKSTSGGTAALGCLVKDYFPEPVTVSWNSGALTSGVHTFPAVLQSSGLYSLSSVVTVPSSSLGTQTYICNVNHKPSNTKVDKKVEPKSCGGGGSGGGGSGGGGSGGGGSDIQMTQSPSSLSASVGDRVTITCLASEDISNDLAWYQQKPGKAPKLLIYFVDRLLDGVPSRFSGSGSGTDFTLTISSLQPEDFATYYCQQSYKYPPTFGQGTKLEIKGGGGSDKTHTCPPCPAPEAAGPSVFLFPPKPKDTLMISRTPEVTCVVVDVSHEDPEVKFNWYVDGVEVHNAKTKPREEQYNSTYRVVSVLTVLHQDWLNGKEYKCKVSNKALPAPIEKTISKAKGQPREPQVYTLPPSREEMTKNQVSLSCAVKGFYPSDIAVEWESNGQPENNYKTTPPVLDSDGSFFLVSKLTVDKSRWQQGNVFSCSVMHEALHNRFTQKSLSLSPG
light: NIQMTQSPSSLSASVGDRVTITCKAGQNVNNYLAWYQQKPGKAPKVLIFNANSLQTGVPSRFSGSGSGTDFTLTISSLQPEDFATYYCQQYNSWPTFGGGTKVEIKRTVAAPSVFIFPPSDEQLKSGTASVVCLLNNFYPREAKVQWKVDNALQSGNSQESVTEQDSKDSTYSLSSTLTLSKADYEKHKVYACEVTHQGLSSPVTKSFNRGEC
notes: PD-1 Fabs (Ly516) x central CD40 Fv (TM559)
Take B3: the binding result in the test with CD40 and with PD-1 (binding assay) was “binds” in each case.

B4: Ly2415 (bispecific antibody, human IgG1, kappa)
heavy 1: QVTLKESGPALVKPTQTLTLTCTFSGFSLSTSGTCVSWIRQPPGKALEWLATICWEDSKGYNPSLKSRLTISKDTSKNQAVLTMTNMDPVDTATYYCARREDSGYFWFPYWGQGTLVTVSSASTKGPSVFPLAPSSKSTSGGTAALGCLVKDYFPEPVTVSWNSGALTSGVHTFPAVLQSSGLYSLSSVVTVPSSSLGTQTYICNVNHKPSNTKVDKKVEPKSCDKTHTCPPCPAPEAAGPSVFLFPPKPKDTLMISRTPEVTCVVVDVSHEDPEVKFNWYVDGVEVHNAKTKPREEQYNSTYRVVSVLTVLHQDWLNGKEYKCKVSNKALPAPIEKTISKAKGQPREPQVYTLPPSREEMTKNQVSLWCLVKGFYPSDIAVEWESNGQPENNYKTTPPVLDSDGSFFLYSKLTVDKSRWQQGNVFSCSVMHEALHNHYTQKSLSLSPGGGGGSGGGGSGGGGSGGGGSEVQLVESGGGLVQPGGSLRLSCAASGFTFTNYGLHWVRQAPGKGLEWVSSISPSGGVTYYRDSVKGRFTISRDNSKNTLYLQMNSLRAEDTAVYYCAKPFLGWGGANWIAHWGQGTLVTVSS
heavy 2: QVTLKESGPALVKPTQTLTLTCTFSGFSLSTSGTCVSWIRQPPGKALEWLATICWEDSKGYNPSLKSRLTISKDTSKNQAVLTMTNMDPVDTATYYCARREDSGYFWFPYWGQGTLVTVSSASTKGPSVFPLAPSSKSTSGGTAALGCLVKDYFPEPVTVSWNSGALTSGVHTFPAVLQSSGLYSLSSVVTVPSSSLGTQTYICNVNHKPSNTKVDKKVEPKSCDKTHTCPPCPAPEAAGPSVFLFPPKPKDTLMISRTPEVTCVVVDVSHEDPEVKFNWYVDGVEVHNAKTKPREEQYNSTYRVVSVLTVLHQDWLNGKEYKCKVSNKALPAPIEKTISKAKGQPREPQVYTLPPSREEMTKNQVSLSCAVKGFYPSDIAVEWESNGQPENNYKTTPPVLDSDGSFFLVSKLTVDKSRWQQGNVFSCSVMHEALHNRFTQKSLSLSPGGGGGSGGGGSGGGGSGGGGSDIQMTQSPSSLSASVGDRVTITCLASEDISNDLAWYQQKPGKAPKLLIYFVDRLLDGVPSRFSGSGSGTDFTLTISSLQPEDFATYYCQQSYKYPPTFGQGTKLEIK
light: NIQMTQSPSSLSASVGDRVTITCKAGQNVNNYLAWYQQKPGKAPKVLIFNANSLQTGVPSRFSGSGSGTDFTLTISSLQPEDFATYYCQQYNSWPTFGGGTKVEIKRTVAAPSVFIFPPSDEQLKSGTASVVCLLNNFYPREAKVQWKVDNALQSGNSQESVTEQDSKDSTYSLSSTLTLSKADYEKHKVYACEVTHQGLSSPVTKSFNRGEC
notes: PD-1 Fabs (Ly516) x terminal CD40 Fv (TM559)
As for B4, the binding result with CD40 and with PD-1 (binding assay) was “binds” throughout.
